Experimental data taken from US20010039258A1, “Active agent transport systems” (Emisphere Technologies, Inc., priority 1990, published 2001).
Bridge positions count the residues as written; N and C are the ends. Ends that are not written are not given here.

How the values were obtained:
[1] = DSC of rhGh, effect of ionic strength; assay type: physicochemical; conditions: pH 7.5
[2] = In vivo rhGH in rats, subcutaneous, with delivery agents; set-up: species or system Sprague-Dawley rats; conditions: rat; no delivery agent (Example 43A)
Method: (§1) The delivery agents were reconstituted with distilled water and adjusted to pH 7.2-8.0 with either aqueous hydrochloric acid or aqueous sodium hydroxide. A stock solution of rhGH was prepared by mixing rhGH, D-mannitol and glycine and dissolving this mixture in 2% glycerol/water. The stock solution was then added to the delivery agent solution. Several delivery agent to active agent ratios were studied.
Male Sprague-Dawley rats weighing 200-250 g were fasted for 24 hours and administered ketamine (44 mg/kg) and chlorpromazine (1.5 mg/kg) 15 minutes prior to dosing. The rats were administered one of the dosing solutions described above by subcutaneous injection, intranasal instillation, or sublingual instillation. Blood samples were collected serially from the tail artery for serum calcium concentration determination or serum rhGH concentrations. The dose of rhGH administered in these experiments was 0.1 mg/kg.
Serum rhGH concentrations were quantified by an rhGH enzyme immunoassay test kit.
rhGH (1 mg/kg) was administered by oral gavage to a rat, and delivery was evaluated according to the procedure of Example 43.

[3] = DSC of rhGh, effect of GuHCl; assay type: physicochemical; conditions: pH 7.5
Method: (§2) Scanning calorimetry was performed using 5 mg 0.83 mM porcine insulin (MW 6,000) per mL in 50 mM phosphate buffer, pH 7.5. All thermograms were performed on a Microcal MC-2 scanning calorimeter equipped with the DA2 data acquisition system operated in the upscale mode at 1° C./min (up to 90° C.), and data points were collected at 20 second intervals. All scans were initiated at least 20 degrees below the observed transitions for the active agent. All thermograms were corrected for baseline subtraction and normalized for the concentration of macromolecule. According to the methods of the Johns Hopkins Biocalorimetry Center, See, for example, Ramsay et al. Biochemistry (1990) 29:8677-8693; Schon et al. Biochemistry (1989) 28:5019-5024 (1990) 29: 781-788.
An initial scan of rhGh was performed at 10 mg/mL in the absence of GuHCl (0.33 mM assuming 20,000 molecular weight). Subsequently, the concentration of rhGh was lowered to 5 mg/mL (0.17 mM) in 50 mM phosphate buffer, pH 7.5 containing varying concentrations of GuHCl. Each subsequent thermogram was corrected by background subtraction of a 0.5 M guanidine-phosphate buffer solution. The thermograms were corrected by subtraction of a 0.5M NaCl-phosphate buffer blank. Scans were performed according to the procedure of Example 9.

[4] = In vivo delivery of rhGH in rats, sublingual, intranasal, oral; conditions: rat, no carrier, drug dose 6 mg/kg
Method: Dosing compositions were prepared by mixing the modified amino acids and recombinant human growth hormone (rhGH) as listed in Table 16 below in a phosphate buffer solution at a pH of about 7-8.
Rats were administered the dosing composition by sublingual or intranasal administration. Delivery was evaluated by using an ELISA assay for rhGH from Medix Biotech, Inc. For intracolonic administration, a sample was prepared and dosed to fasted rats at 25 mg/kg of carrier in a buffered solution containing propylene glycol (0-50%) and 1 mg/kg rhGH.
rhGH ([…]) was administered by oral gavage to a rat, and delivery was evaluated according to the procedure of Example 41A.

[5] = DSC of rhGh, effect of pH; assay type: physicochemical
Method: as §2
5 mg/mL rhGh were dissolved in buffer (0.17 mM in 50 mM phosphate buffer, assuming a molecular weight of 20,000). The pH of the solution was adjusted to the desired value, and all curves were corrected by baseline subtraction.
The effect of pH on structure was assessed by DSC according to the procedure of Example 9 where individual solutions were prepared in phosphate buffer ranging in pH value from 2.0 to 6.0.

[6] = DSC of rhGh, effect of pH; assay type: physicochemical; conditions: pH 7.5 (10 mg/mL)
[7] = system: serum calcium; assay: In vivo salmon calcitonin in rats, subcutaneous, with delivery agents; set-up: species or system Sprague-Dawley rats; conditions: sCT 0.2 μg/kg, no delivery agent (Example 55A)
Method: as §1, with “sCT” for “rhGH”, “by” for “by mixing rhGH, D-mannitol and glycine and”, “sCT” for “this mixture”, “citric acid (0.085N).” for “2% glycerol/water.”, “Several different” for “Several”
Male Sprague-Dawley rats weighing 200-250 g were fasted for 24 hours and administered ketamine (44 mg/kg) and chlorpromazine (1.5 mg/kg) 15 minutes prior to dosing. The rats were administered one of the dosing solutions described above by subcutaneous injection. Blood samples were collected serially from the tail artery for serum calcium concentration.
Serum calcium concentrations were quantified by the o-cresolphthalein complexone method (Sigma) using a UV/VIS spectrophotometer (Perkin Elmer).
Salmon calcitonin was administered by oral gavage to rats, and delivery was evaluated according to the Procedure of Example 55.

## rhGh: recombinant human growth hormone
[1]; 0.0 M NaCl
  Tm (Cp, max): 75.2 °C
  ΔH°: 191.0 kcal/mol
[1]; 0.5 M NaCl
  Tm (Cp, max): 75.8 °C
  ΔH°: 89.7 kcal/mol
[1]; 1.0 M NaCl
  ΔH°: 50.5 kcal/mol
[1]; 10.0 M NaCl
  Tm (Cp, max): 76.5 °C
[2]
  Peak Serum [rhGH]: 4 ± 2 ng/mL
[3]; 0.5 M GuHCl
  DOMAIN A Tm (Cp, max): 71.5 °C
  DOMAIN B Tm (Cp, max): not defined,
  ΔH°: 48 kcal/mol
[3]; 1.0 M GuHCl
  DOMAIN A Tm (Cp, max): 70.9 °C
  DOMAIN B Tm (Cp, max): absent
  ΔH°: 109 kcal/mol
[3]; 1.5 M GuHCl
  DOMAIN A Tm (Cp, max): 69.7 °C
  DOMAIN B Tm (Cp, max): absent
  ΔH°: 12 kcal/mol
[3]; 2.0 M GuHCl
  DOMAIN A Tm (Cp, max): 70.0 °C
  DOMAIN B Tm (Cp, max): absent
  ΔH°: 58 kcal/mol
[3]; 2.5 M GuHCl
  DOMAIN A Tm (Cp, max): 70.7 °C
  DOMAIN B Tm (Cp, max): absent
  ΔH°: 99 kcal/mol
[3]; no GuHCl, rhGh 10 mg/mL
  DOMAIN A Tm (Cp, max): 72.6 °C
  DOMAIN B Tm (Cp, max): 74.3 °C
  ΔH°: 632 kcal/mol
[4]
  Mean Peak Serum Levels of rhGH: <10 ± 10 ng/mL
[5]; pH 2.0
  Tm (Cp, max): no transition observed
  ΔH°: no transition observed
[5]; pH 3.0
  Tm (Cp, max): no transition observed
  ΔH°: no transition observed
[5]; pH 3.5
  Tm (Cp, max): no transition observed
  ΔH°: no transition observed
[5]; pH 4.0
  Tm (Cp, max): ≈73.0 °C
  ΔH°: broad transition
[5]; pH 5.0
  Tm (Cp, max): 75.0 °C
  ΔH°: 161 kcal/mol
[5]; pH 6.0
  Tm (Cp, max): 75.2 °C
  ΔH°: 191 kcal/mol
[6]
  Tm (Cp, max), transition a): a) 73 °C
  Tm (Cp, max), transition b): b) 75 °C
  ΔH°, (a) + (b): (a) + (b) = 632 kcal/mol

## sCT: Salmon Calcitonin (CSNLSTCVLGKLSQELHKLQTYPRTNTGSGTP-NH2; disulfide 1-7; ends not checked)
[7]
  Percent Decrease in Serum Calcium: 17 ± 2%
